Results taken from patent US12503443B2, “Process-scale synthesis of a plasma kallikrein inhibitor” (BioCryst Pharmaceuticals, Inc., priority 2019, dated 2025).

Key:
human plasma kallikrein = human plasma kallikrein (Homo sapiens, UniProt P03952); experiment: in vitro biochemical assay measuring inhibition of human plasma kallikrein activity; conditions: protocols and results in WO 2015/134998 and US 2017/0073314 A1
Method: Compound I was assayed in an in vitro biochemical assay measuring inhibition of human plasma kallikrein activity. Experimental protocols and results of the assays are found in WO 2015/134998 and U.S. Patent Application Publication No. 2017/0073314 A1 (both incorporated by reference).

[1] = tested on: patients with hereditary angioedema (HAE); conditions: human, in vivo; cited from earlier work
rat models of arthritis = conditions: cited from earlier work
sepsis patients = conditions: cited from earlier work
[2] = tested on: lipopolysaccharide (LPS)- or bacterial-induced sepsis in animals; conditions: cited from earlier work
[3] = tested on: mouse model of middle cerebral artery occlusion (MCAO); conditions: cited from earlier work

Chain of human plasma kallikrein (P03952 391-638 limits assumed): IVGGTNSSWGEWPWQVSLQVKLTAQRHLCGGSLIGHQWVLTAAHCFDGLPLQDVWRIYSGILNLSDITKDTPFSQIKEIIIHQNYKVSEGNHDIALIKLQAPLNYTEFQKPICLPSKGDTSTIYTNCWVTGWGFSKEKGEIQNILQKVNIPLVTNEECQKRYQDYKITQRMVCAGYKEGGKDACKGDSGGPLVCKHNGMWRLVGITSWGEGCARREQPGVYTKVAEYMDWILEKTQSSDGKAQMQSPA
Chain of human plasma kallikrein (P03952 20-390 partner limits assumed): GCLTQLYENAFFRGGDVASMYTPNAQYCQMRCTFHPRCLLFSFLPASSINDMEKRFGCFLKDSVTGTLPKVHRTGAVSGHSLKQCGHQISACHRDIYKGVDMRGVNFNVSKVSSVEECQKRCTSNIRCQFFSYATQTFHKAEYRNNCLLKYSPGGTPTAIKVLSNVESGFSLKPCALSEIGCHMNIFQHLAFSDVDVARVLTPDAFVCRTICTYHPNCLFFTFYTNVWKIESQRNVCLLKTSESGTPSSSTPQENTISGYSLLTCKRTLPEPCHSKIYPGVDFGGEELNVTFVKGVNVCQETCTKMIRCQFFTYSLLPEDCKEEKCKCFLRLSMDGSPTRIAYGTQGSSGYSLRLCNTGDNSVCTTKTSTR

N#Cc1cccc([C@@H](NCC2CC2)c2ccc(F)c(NC(=O)c3cc(C(F)(F)F)nn3-c3cccc(CN)c3)c2)c1 [Compound I]
inhibition of human plasma kallikrein activity (human plasma kallikrein): potent inhibitor

NC(N)=NCCC[C@@H](N)C(=O)N[C@@H](CCCN=C(N)N)C(=O)N1CCC[C@H]1C(=O)N1C[C@H](O)C[C@H]1C(=O)NCC(=O)N[C@@H](Cc1cccs1)C(=O)N[C@@H](CO)C(=O)N1Cc2ccccc2C[C@@H]1C(=O)N1[C@H](C(=O)N[C@@H](CCCN=C(N)N)C(=O)O)C[C@@H]2CCCC[C@@H]21 [Icatibant]
treating HAE [1]: effective

Cl.NCC1CCC(C(=O)N[C@@H](Cc2ccccc2)C(=O)Nc2ccc(CC(=O)O)cc2)CC1 (stereo partly shown) [PKSI-527]
joint swelling (rat models of arthritis): reduce

B1: C1-inhibitor: physiological inhibitor of kallikrein in human plasma (protein, UniProt P05155 23-500, looked up)
Plasma protease C1 inhibitor: NPNATSSSSQDPESLQDRGEGKVATTVISKMLFVEPILEVSSLPTTNSTTNSATKITANTTDEPTTQPTTEPTTQPTIQPTQPTTQLPTDSPTQPTTGSFCPGPVTLCSDLESHSTEAVLGDALVDFSLKLYHAFSAMKKVETNMAFSPFSIASLLTQVLLGAGENTKTNLESILSYPKDFTCVHQALKGFTTKGVTSVSQIFHSPDLAIRDTFVNASRTLYSSSPRVLSNNSDANLELINTWVAKNTNNKISRLLDSLPSDTRLVLLNAIYLSAKWKTTFDPKKTRMEPFHFKNSVIKVPMMNSKKYPVAHFIDQTLKAKVGQLQLSHNLSLVILVPQNLKHRLEDMEQALSPSVFKAIMEKLEMSKFQPTLLTLPRIKVTTSQDMLSIMEKLEFFDFSYDLNLCGLTEDPDLQVSAMQHQTVLELTETGVEAAAASAISVARTLLVFEVQQPFLFVLWDQQHKFPVFMGRVYDPRA
clinical outcome in sepsis patients (sepsis patients): Clinical improvement
lesions [2]: reduce
vascular permeability in multiple organs [2]: reduce
infarct size [3]: reduced
